Values of other authors as cited in PMC8298264, “Function of cofactor Akirin2 in the regulation of gene expression in model human neutrophil-like HL60 cells” (Bioscience Reports, 2021).

Tested on: AKR2
Design: key: A: Very high confidence in the interaction; B: High confidence in the interaction; D: Moderate confidence in the interaction
Settings: AKR2-interacting proteins (IPs), physical interactome; ref https://doi.org/10.3390/vaccines8010077; cited from earlier work
Text: Supplement BSR-2021-1120_supp1.zip/BSR-2021-1120_suppST4.xlsx, sheet "BPs related to AKR2-IPs" | column: Predicted Biological Score (PBS)

B1: TOMM34 (protein, UniProt Q15785 1-309, looked up)
Mitochondrial import receptor …: MAPKFPDSVEELRAAGNESFRNGQYAEASALYGRALRVLQAQGSSDPEEESVLYSNRAACHLKDGNCRDCIKDCTSALALVPFSIKPLLRRASAYEALEKYPMAYVDYKTVLQIDDNVTSAVEGINRMTRALMDSLGPEWRLKLPSIPLVPVSAQKRWNSLPSENHKEMAKSKSKETTATKNRVPSAGDVEKARVLKEEGNELVKKGNHKKAIEKYSESLLCSNLESATYSNRALCYLVLKQYTEAVKDCTEALKLDGKNVKAFYRRAQAHKALKDYKSSFADISNLLQIEPRNGPAQKLRQEVKQNLH
For B1, the “Predicted Biological Score (PBS)” value is given as “A”.

B2: UBAC1 (protein, UniProt Q9BSL1 1-405, looked up)
Ubiquitin-associated …: MFVQEEKIFAGKVLRLHICASDGAEWLEEATEDTSVEKLKERCLKHCAHGSLEDPKSITHHKLIHAASERVLSDARTILEENIQDQDVLLLIKKRAPSPLPKMADVSAEEKKKQDQKAPDKEAILRATANLPSYNMDRAAVQTNMRDFQTELRKILVSLIEVAQKLLALNPDAVELFKKANAMLDEDEDERVDEAALRQLTEMGFPENRATKALQLNHMSVPQAMEWLIEHAEDPTIDTPLPGQAPPEAEGATAAASEAAAGASATDEEARDELTEIFKKIRRKREFRADARAVISLMEMGFDEKEVIDALRVNNNQQNAACEWLLGDRKPSPEELDKGIDPDSPLFQAILDNPVVQLGLTNPKTLLAFEDMLENPLNSTQWMNDPETGPVMLQISRIFQTLNRT
For B2, the “Predicted Biological Score (PBS)” value is listed as “A”.
